Data: paper PMC9463231 (2022)

Assays:
Experiment in all cases: SPR
biotinylated mouse FcγRI = target: T1, biotinylated mouse FcγRI (mouse, UniProt P26151 25-297, biotin)
T1 chain: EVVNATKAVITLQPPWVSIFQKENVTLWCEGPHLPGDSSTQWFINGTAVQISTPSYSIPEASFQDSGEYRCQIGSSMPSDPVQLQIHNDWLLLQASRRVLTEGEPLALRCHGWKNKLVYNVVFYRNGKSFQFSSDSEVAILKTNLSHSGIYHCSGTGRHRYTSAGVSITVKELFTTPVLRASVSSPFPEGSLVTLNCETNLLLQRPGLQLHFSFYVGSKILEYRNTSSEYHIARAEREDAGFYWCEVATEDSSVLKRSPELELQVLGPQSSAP

[1] = target: T2, biotinylated mouse FcγRIV (mouse, UniProt A0A0B4J1G0 21-203, biotin)
T2 chain: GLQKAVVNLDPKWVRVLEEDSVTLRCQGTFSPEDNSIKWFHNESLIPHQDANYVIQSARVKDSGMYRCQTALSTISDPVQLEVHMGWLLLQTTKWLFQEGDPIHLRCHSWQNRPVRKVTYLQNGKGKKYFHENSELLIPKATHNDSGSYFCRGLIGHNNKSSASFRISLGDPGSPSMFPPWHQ

His-tagged mouse FcγRIII = target: T3, His-tagged mouse FcγRIII (mouse, UniProt P08508 31-261)
T3 chain: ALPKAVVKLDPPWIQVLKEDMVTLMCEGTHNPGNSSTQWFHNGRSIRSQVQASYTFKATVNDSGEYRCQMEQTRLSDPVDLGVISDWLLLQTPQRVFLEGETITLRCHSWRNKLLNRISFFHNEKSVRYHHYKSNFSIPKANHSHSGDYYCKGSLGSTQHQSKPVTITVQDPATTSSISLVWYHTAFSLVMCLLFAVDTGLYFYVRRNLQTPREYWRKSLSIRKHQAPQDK

B1: Ipilimumab mIgG2a wildtype (anti-human CTLA-4 mIgG2a with an intact Fc domain) (antibody)
chain 1: QVQLVESGGGVVQPGRSLRLSCAASGFTFSSYTMHWVRQAPGKGLEWVTFISYDGNNKYYADSVKGRFTISRDNSKNTLYLQMNSLRAEDTAIYYCARTGWLGPFDYWGQGTLVTVSS
chain 2: not shown
Question: What does the source list for B1?
Answer: Kd (biotinylated mouse FcγRI): 85.8 nM; Kd [1]: 388 nM; Kd (His-tagged mouse FcγRIII): 3690 nM
